Publication PMC9424529, “Small molecule mediated inhibition of protein cargo recognition by peroxisomal transport receptor PEX5 is toxic to Trypanosoma” (Scientific Reports, 2022)
Where no end group is shown, it is not given here. The star is where a group is joined. 6FAM = O=C1OC2(c3ccc(O)cc3Oc3cc(O)ccc32)c2cc(C(=O)*)ccc21

How the values were obtained:
[1] = target: T1, TPR domain of T. cruzi PEX5 (347–668) (T. cruzi, UniProt Q4DPQ9 347-668); test: fluorescence polarisation; saturation binding: 10 nM 6-FAM-PTS1 titrated with TcPEX5 (0.1–250 nM); 10 mM Hepes pH 7.5, 100 mM NaCl, 5% DMSO; one-site fit; settings: both partners purified
T1 construct: PEX5, Trypanosoma cruzi, C-terminal tetratricopeptide repeat (TPR) domain, residues 347-668; codon-optimised synthetic gene in the petHSU vector; The His-SUMO tag was cleaved on the column with dtUD1 protease; also called TcPEX5; TcPEX5 (TPR domain); source: E. coli BL21 (DE3), purified (HiTrap IMAC, on-column tag cleavage, SEC S75); not shown: His6, N-terminal, cleaved
T1 sequence (looked up): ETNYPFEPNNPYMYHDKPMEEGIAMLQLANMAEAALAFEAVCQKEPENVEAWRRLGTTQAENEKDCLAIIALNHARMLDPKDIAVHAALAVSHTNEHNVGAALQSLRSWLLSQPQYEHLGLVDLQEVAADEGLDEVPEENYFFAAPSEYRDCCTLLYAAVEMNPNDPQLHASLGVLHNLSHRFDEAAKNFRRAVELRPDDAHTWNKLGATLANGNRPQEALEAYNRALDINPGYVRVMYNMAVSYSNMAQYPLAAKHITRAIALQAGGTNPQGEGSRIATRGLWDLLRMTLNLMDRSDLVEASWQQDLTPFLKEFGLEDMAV

[2] = target: T1, TPR domain of T. cruzi PEX5 (347–668); test: fluorescence polarisation; competitive: increasing unlabeled PTS1 added to 30 nM TcPEX5 (f0 = 0.8) and 10 nM 6-FAM-PTS1; Ki by curve fitting; settings: both partners purified

| Binder | Kd [1] [nM] | Ki [2] [nM] |
| --- | --- | --- |
| 6FAM-YQSKL (pentapeptide representing peroxisomal targeting signal 1 (PTS1); also called 6-FAM-PTS1; FAM-PTS1) [6-FAM-labelled PTS1 (6-FAM-YQSKL)] | 21 | – |
| YQSKL (pentapeptide representing PTS1, without the label; also called PTS1 alone; unlabeled PTS peptide) [unlabeled PTS1 peptide] | – | 126 |
